Assay results published in patent US20240209078A1 (Amgen, published 2024).

Assays:
human CDH3 [1] = target: T1, human CDH3 (human, UniProt P22223 108-829); experiment: cell-based or functional assay
cyno MSLN = target: T2, cyno MSLN (cyno); experiment: cell-based affinity, flow cytometry on target-transfected CHO cells, nonlinear regression (one site - specific binding), mean of three measurements
T2 construct: whole, on cells; On transfected CHO cells; also called cy MSLN
Protocol: (§1) Cell-based affinity of CDH3 MSLN dual targeting antigen-binding molecules was determined by nonlinear regression (one site—specific binding) analysis. CHO cells expressing human CDH3, cyno CDH3, human MSLN or cyno MSLN were incubated with decreasing concentrations of CDH3 MSLN dual targeting antigen-binding molecules (12.5 nM on CDH3 cell lines, 800 nM on MSLN cell lines, step 1:2, 11 steps) for 16 h at 4° ° C. Bound CDH3 MSLN dual targeting antigen-binding molecules were detected with Alexa Fluor 488-conjugated AffiniPure Fab Fragment Goat Anti-Human IgG (H+L). Fixed cells were stained with DRAQ5, Far-Red Fluorescent Live-Cell Permeant DNA Dye and signals were detected by fluorescence cytometry. Respective equilibrium dissociation constant (Kd) values were calculated with the one site—specific binding evaluation tool of the GraphPad Prism software. Mean Kd values and affinity gaps were calculated with Microsoft Excel.
(§2) Cell-based affinities of CDH3 MSLN dual targeting antigen-binding molecules on target-transfected CHO cells were determined by nonlinear regression (one site - specific binding) analysis. Mean Kd values were calculated from three independent measurements. Affinity gaps were determined by dividing the cyno Kd by the human Kd.

cyno CDH3 = target: T3, cyno CDH3 (cyno); experiment: as above
T3 construct: whole, on cells; On transfected CHO cells; also called cy CDH3
Protocol: as §1, §2

human CDH3 [2] = target: T1, human CDH3; experiment: as above
Protocol: as §1, §2

human CDH3 [3] = target: T1, human CDH3; experiment: cell-based or functional assay; remark: listed apart in the source
[4] = target: human CDH3 (Cadherin-3, P-Cadherin) (human, UniProt P22223 108-829); experiment: cell-based or functional assay
human MSLN (mesothelin) = human MSLN (mesothelin) (human, UniProt Q13421 37-598); experiment: cell-based or functional assay

Row | Binder | EC50 (cytotoxicity) on double positive cells; column head printed 'EC50 CHO hu CDH3 (+) & MSLN (+)'; value is that of HCT 116 wt in Table 46 (human CDH3 [1]) | EC50 (cytotoxicity); column head printed 'EC50 CHO hu MSLN (+)', table title HCT 116; value is that of HCT 116 KO MSLN in Table 46 (human CDH3 [1]) | fold gap of column 2 (HCT 116 KO MSLN by Table 46) against double positive cells (human CDH3 [1]) | Kd (cyno MSLN) | Kd (cyno CDH3) | Kd (human CDH3 [2]) | EC50 on HCT 116 KO MSLN (cytotoxicity; cells CDH3+, MSLN-) (human CDH3 [3]) | EC50 on HCT 116 wt (cytotoxicity; cells CDH3+, MSLN+) (human CDH3 [3]) | cytotoxicity EC50, GSU KO MSLN cells [4] | cytotoxicity EC50, GSU KO CDH3 cells (human MSLN (mesothelin))
1 | CH3 15-E11 CC × I2L × G4 × scFc × G4 × MS 15-B12 CC × I2L_GQ (bispecific antibody, Single chain: CDH3 scFv - CD3 scFv (I2L) - scFc - MSLN scFv - CD3 scFv (I2L)) QVQLVQSGAEVKKPGASVKVSCKASGYTFTNYWMNWVRQAPGQCLEWMGNIAYGVKGTNYNQKFQGRVTMTVDTSSSTAYMELSRLRSDDTAVYYCATRYFYVMDYWGQGTLVTVSSGGGGQGGGGQGGGGQDIQMTQSPSSLSASVGDRVTITCRASQDISNYLNWYQQKPGKVPKLLIYYTSRLHSGVPSRFSGSGSGTDFTLTISSLQPEDVATYYCVQYAQFPLTFGCGTKVEIKSGGGGQEVQLVESGGGLVQPGGSLKLSCAASGFTFNKYAMNWVRQAPGKGMEWVARIRSKYNNYATYYADAVKDRFTISRDDSKNTLYLQMNNLKTEDTAVYYCVRAGNFGSSYISYFAYWGQGTLVTVSSGGGGQGGGGQGGGGQQTVVTQEPSLTVSPGGTVTITCGSSTGAVTSGNYPNWIQKKPGQAPRGLIGGTKFLAPGTPARFSGSLEGGKAALTLSGVQPEDEAEYYCVLYYSNRWVFGSGTKLTVLGGGGCPPCPAPELLGGPSVFLFPPKPKDTLMISRTPEVTCVVVDVSHEEPEVKFNWYVDGVEVHNAKTKPCEEQYGSTYRCVSVLTVLHQDWLNGKEYKCKVSNKALPAPIEKTISKAKGQPREPQVYTLPPSREEMTKNQVSLTCLVKGFYPSDIAVEWESNGQPENNYKTTPPVLDSDGSFFLYSKLTVDKSRWQQGNVFSCSVMHEALHNHYTQKSLSLSPGKGGGGQGGGGQGGGGQGGGGQGGGGQGGGGQCPPCPAPELLGGPSVFLFPPKPKDTLMISRTPEVTCVVVDVSHEEPEVKFNWYVDGVEVHNAKTKPCEEQYGSTYRCVSVLTVLHQDWLNGKEYKCKVSNKALPAPIEKTISKAKGQPREPQVYTLPPSREEMTKNQVSLTCLVKGFYPSDIAVEWESNGQPENNYKTTPPVLDSDGSFFLYSKLTVDKSRWQQGNVFSCSVMHEALHNHYTQKSLSLSPGKGGGGQVQLQESGPGLVKPSETLSLTCTVSGGSISSSSYFWGWIRQPPGKCLEWIGNIYYSGSSNYNPSLKSRVTISVDTSKNQFSLKLSSVTAADTAVYYCARLPRGDRDAFDIWGQGTMVTVSSGGGGQGGGGQGGGGQDIVMTQSPSSLSASVGDRVTITCRASQGISNYLAWYQQKPGKVPKLLIYAASTLQSGVPSRFSGSGSGTDFTLTISSLQPEDFATYYCQQSYSTPFTFGCGTKVEIKSGGGGQEVQLVESGGGLVQPGGSLKLSCAASGFTFNKYAMNWVRQAPGKGMEWVARIRSKYNNYATYYADAVKDRFTISRDDSKNTLYLQMNNLKTEDTAVYYCVRAGNFGSSYISYFAYWGQGTLVTVSSGGGGQGGGGQGGGGQQTVVTQEPSLTVSPGGTVTITCGSSTGAVTSGNYPNWIQKKPGQAPRGLIGGTKFLAPGTPARFSGSLEGGKAALTLSGVQPEDEAEYYCVLYYSNRWVFGSGTKLTVL | 0.071 pM | 8.7 pM | 122 fold | 51.4 nM | 0.19 nM | 0.16 nM | 8.7 pM | 0.07 pM |  | 
2 | CH3 15-E11_1_VAG_CC × I2L × G4 × scFc × G4 × MS 15-B12 CC × I2L clipopt_DI (bispecific antibody, Single chain) QVQLVQSGAEVKKPGASVKVSCKASGYTFTNYWMNWVRQAPGQCLEWMGNIAYGVAGTNYNQKFQGRVTMTVDTSSSTAYMELSRLRSDDTAVYYCATRYFYVMDYWGQGTLVTVSSGGGGQGGGGQGGGGQDIQMTQSPSSLSASVGDRVTITCRASQDISNYLNWYQQKPGKVPKLLIYYTSRLHSGVPSRFSGSGSGTDFTLTISSLQPEDVATYYCVQYAQFPLTFGCGTKVEIKSGGGGQEVQLVESGGGLVQPGGSLKLSCAASGFTFNKYAMNWVRQAPGKGMEWVARIRSKYNNYATYYADAVKDRFTISRDDSKNTLYLQMNNLKTEDTAVYYCVRAGNFGSSYISYFAYWGQGTLVTVSSGGGGQGGGGQGGGGQQTVVTQEPSLTVSPGGTVTITCGSSTGAVTSGNYPNWIQKKPGQAPRGLIGGTKFLAPGTPARFSGSLEGGKAALTLSGVQPEDEAEYYCVLYYSNRWVFGSGTKLTVLGGGGCPPCPAPELLGGPSVFLFPPKPKDTLMISRTPEVTCVVVDVSHEEPEVKFNWYVDGVEVHNAKTKPCEEQYGSTYRCVSVLTVLHQDWLNGKEYKCKVSNKALPAPIEKTISKAKGQPREPQVYTLPPSREEMTKNQVSLTCLVKGFYPSDIAVEWESNGQPENNYKTTPPVLDSDGSFFLYSKLTVDKSRWQQGNVFSCSVMHEALHNHYTQKSLSLSPGKGGGGQGGGGQGGGGQGGGGQGGGGQGGGGQCPPCPAPELLGGPSVFLFPPKPKDTLMISRTPEVTCVVVDVSHEEPEVKFNWYVDGVEVHNAKTKPCEEQYGSTYRCVSVLTVLHQDWLNGKEYKCKVSNKALPAPIEKTISKAKGQPREPQVYTLPPSREEMTKNQVSLTCLVKGFYPSDIAVEWESNGQPENNYKTTPPVLDSDGSFFLYSKLTVDKSRWQQGNVFSCSVMHEALHNHYTQKSLSLSPGKGGGGQVQLQESGPGLVKPSETLSLTCTVSGGSISSSSYFWGWIRQPPGKCLEWIGNIYYSGSSNYNPSLKSRVTISVDTSKNQFSLKLSSVTAADTAVYYCARLPRGDRDAFDIWGQGTMVTVSSGGGGQGGGGQGGGGQDIVMTQSPSSLSASVGDRVTITCRASQGISNYLAWYQQKPGKVPKLLIYAASTLQSGVPSRFSGSGSGTDFTLTISSLQPEDFATYYCQQSYSTPFTFGCGTKVEIKSGGGGQEVQLVESGGGLVQPGGSLKLSCAASGFTFNKYAMNWVRQAPGKGMEWVARIRSKYNNYATYYADAVKDRFTISRDDSKNTLYLQMNNLKTEDTAVYYCVRAGNFGSSYISYFAYWGQGTLVTVSSGGGGQGGGGQGGGGQQTVVTQEPSLTVSPGGTVTITCGSSTGAVTSGNYPNWIQKKPGQAPRGLIGGTKFLAPGTPARFSGSLEGGKAALTLSGVQPEDEAEYYCVLYYSNRWVFGSGTKLTVL |  |  |  | 50.3 nM | 0.57 nM | 0.51 nM |  |  |  | 
3 | MS 15-B12 CC × 6H10.09 × (G4) × heFc (A) * heFc (B) × (G4) × CH3 15-E11 CC × 6H10.09 (bispecific antibody) chain 1: not shown chain 2: DKTHTCPPCPAPELLGGPSVFLFPPKPKDTLMISRTPEVTCVVVDVSHEDPEVKFNWYVDGVEVHNAKTKPCEEQYGSTYRCVSVLTVLHQDWLNGKEYKCKVSNKALPAPIEKTISKAKGQPREPQVYTLPPSRKEMTKNQVSLTCLVKGFYPSDIAVEWESNGQPENNYKTTPPVLKSDGSFFLYSKLTVDKSRWQQGNVFSCSVMHEALHNHYTQKSLSLSPGKGGGGQVQLVQSGAEVKKPGASVKVSCKASGYTFTNYWMNWVRQAPGQCLEWMGNIAYGVKGTNYNQKFQGRVTMTVDTSSSTAYMELSRLRSDDTAVYYCATRYFYVMDYWGQGTLVTVSSGGGGSGGGGSGGGGSDIQMTQSPSSLSASVGDRVTITCRASQDISNYLNWYQQKPGKVPKLLIYYTSRLHSGVPSRFSGSGSGTDFTLTISSLQPEDVATYYCVQYAQFPLTFGCGTKVEIKSGGGGSEVQLVESGGGLVQPGGSLKLSCAASGFTFNKYAMNWVRQAPGKGMEWVARIRSKYNNYATYYADAVKDRFTISRDDSKNTLYLQMNNLKTEDTAVYYCVRAGNFGSSYISYFAYWGQGTLVTVSSGGGGSGGGGSGGGGSQTVVTQEPSLTVSPGGTVTITCGSSTGAVTSGNYPNWIQKKPGQAPRGLIGGTKFLAPGTPARFSGSLEGGKAALTLSGVQPEDEAEYYCVLYYSNRWVFGSGTKLTVL |  |  |  |  |  |  |  |  | 533 pM | 391 pM
